The target of one series is EPHB1 (UniProt P54762). In words: phosphorylation enrichment, bacterial display (enrichment ratio); higher = better substrate or ligand; peptides without Tyr show the background.
The next series deals with Fes (UniProt P07332). The series is described as above.
The next series deals with AncSZ. The series is described as above.
The next series concerns the target Fyn (UniProt P06241). Described as above.
A further series deals with MERTK (UniProt Q12866). The series is described as above.
Sequence of MERTK (Q12866 whole entry, looked up): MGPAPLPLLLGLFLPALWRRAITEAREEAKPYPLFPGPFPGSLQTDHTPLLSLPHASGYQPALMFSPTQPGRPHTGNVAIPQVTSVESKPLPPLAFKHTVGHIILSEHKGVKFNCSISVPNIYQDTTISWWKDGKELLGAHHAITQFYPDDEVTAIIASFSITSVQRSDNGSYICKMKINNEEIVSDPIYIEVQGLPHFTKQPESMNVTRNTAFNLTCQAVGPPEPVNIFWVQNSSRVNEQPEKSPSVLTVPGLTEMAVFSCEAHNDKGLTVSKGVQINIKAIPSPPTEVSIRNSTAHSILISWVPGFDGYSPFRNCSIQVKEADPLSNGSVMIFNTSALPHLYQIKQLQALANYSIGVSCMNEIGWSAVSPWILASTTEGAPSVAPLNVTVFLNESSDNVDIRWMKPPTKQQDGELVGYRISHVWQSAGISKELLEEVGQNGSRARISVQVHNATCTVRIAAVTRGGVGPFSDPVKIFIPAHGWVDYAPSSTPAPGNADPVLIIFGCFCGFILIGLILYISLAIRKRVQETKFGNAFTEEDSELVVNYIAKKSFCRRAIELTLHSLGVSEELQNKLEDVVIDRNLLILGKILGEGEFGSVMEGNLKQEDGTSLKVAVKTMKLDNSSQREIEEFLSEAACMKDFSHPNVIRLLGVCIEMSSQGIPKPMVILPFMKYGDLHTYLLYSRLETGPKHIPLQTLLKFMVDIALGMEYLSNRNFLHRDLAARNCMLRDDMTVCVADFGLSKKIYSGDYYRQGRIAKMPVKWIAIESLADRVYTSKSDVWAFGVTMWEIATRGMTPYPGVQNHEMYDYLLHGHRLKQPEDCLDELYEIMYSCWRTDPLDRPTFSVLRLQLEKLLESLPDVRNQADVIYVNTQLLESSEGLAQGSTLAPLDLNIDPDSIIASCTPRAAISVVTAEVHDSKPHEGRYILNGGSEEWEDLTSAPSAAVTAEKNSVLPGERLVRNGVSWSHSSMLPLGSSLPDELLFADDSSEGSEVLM
For a further series, the system named is c-Src. The series is described as above.
A further series deals with Fer (mouse). The description is as above.
In another series the target is FGFR3 (UniProt P22607). The description is as above.
Sequence of FGFR3 (P22607 whole entry, looked up): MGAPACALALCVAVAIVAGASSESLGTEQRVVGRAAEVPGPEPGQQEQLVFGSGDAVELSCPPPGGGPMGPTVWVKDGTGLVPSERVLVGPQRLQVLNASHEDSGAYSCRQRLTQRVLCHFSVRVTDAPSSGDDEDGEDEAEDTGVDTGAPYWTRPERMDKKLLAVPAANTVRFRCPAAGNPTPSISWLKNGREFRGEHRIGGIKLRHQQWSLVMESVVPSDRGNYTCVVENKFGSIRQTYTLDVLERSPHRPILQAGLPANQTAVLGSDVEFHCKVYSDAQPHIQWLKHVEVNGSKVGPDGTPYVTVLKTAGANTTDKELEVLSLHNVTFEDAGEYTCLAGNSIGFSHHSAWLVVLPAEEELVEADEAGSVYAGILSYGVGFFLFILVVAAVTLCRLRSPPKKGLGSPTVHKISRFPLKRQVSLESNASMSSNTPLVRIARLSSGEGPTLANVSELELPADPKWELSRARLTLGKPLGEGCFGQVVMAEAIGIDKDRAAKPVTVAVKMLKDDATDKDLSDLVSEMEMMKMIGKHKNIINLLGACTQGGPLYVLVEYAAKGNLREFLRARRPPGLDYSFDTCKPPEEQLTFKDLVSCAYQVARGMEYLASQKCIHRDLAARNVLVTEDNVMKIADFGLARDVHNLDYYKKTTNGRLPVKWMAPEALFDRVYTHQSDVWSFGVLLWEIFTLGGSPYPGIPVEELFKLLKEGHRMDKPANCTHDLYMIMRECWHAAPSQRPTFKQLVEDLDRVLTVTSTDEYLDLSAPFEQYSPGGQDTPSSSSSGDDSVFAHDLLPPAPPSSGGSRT
The next series addresses Jak2 (UniProt O60674). Described as above.
The target in a further series is FGFR1 (UniProt P11362). The description is as above.
For a further series, the system named is c-Abl (mouse). The description is as above.
The next series addresses EPHB2 (UniProt P29323). The series is described as above.
A further series deals with Hck (UniProt P08631). Described as above.
Sequence of Hck (P08631 whole entry, looked up): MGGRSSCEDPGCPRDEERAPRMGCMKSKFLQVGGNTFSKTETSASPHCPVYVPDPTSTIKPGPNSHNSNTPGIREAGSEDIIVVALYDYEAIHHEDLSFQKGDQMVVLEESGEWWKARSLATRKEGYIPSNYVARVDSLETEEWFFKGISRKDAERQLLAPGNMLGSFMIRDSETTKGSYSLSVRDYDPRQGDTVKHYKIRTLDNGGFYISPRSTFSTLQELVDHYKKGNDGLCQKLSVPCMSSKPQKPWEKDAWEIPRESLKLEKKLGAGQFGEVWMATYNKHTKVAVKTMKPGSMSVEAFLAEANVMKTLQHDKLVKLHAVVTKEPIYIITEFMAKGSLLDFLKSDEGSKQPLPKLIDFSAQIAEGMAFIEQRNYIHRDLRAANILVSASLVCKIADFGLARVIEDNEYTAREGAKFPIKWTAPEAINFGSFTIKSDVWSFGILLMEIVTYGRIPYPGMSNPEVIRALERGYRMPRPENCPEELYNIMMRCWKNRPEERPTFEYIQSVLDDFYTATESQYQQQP
Another series addresses c-Src SH2. In words: SH2 binding enrichment of the phosphorylated peptide, bacterial display (enrichment ratio); higher = better substrate or ligand; peptides without Tyr show the background.
For a further series, the target named is Grb2 SH2 (UniProt P62993). The description is as above.
The next series has as its target SHP2-C SH2. Described as above.

Our source for the phosphorylation enrichment and SH2 binding enrichment values is the supplement of paper PMC10065799, “High-throughput profiling of sequence recognition by tyrosine kinases and SH2 domains using bacterial peptide display” (eLife, 2023).
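Wherever SH2 binding enrichment of the phosphorylated peptide, bacterial display is given: peptide library displayed on the E. coli surface as eCPX fusions, selected cells deep-sequenced, score is each peptide's frequency after selection divided by its frequency in the input.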
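Wherever phosphorylation enrichment, bacterial display is given: 11-residue human phosphosite peptides and single-mutation variants displayed on the E. coli surface, counted by deep sequencing, each peptide's frequency after selection divided by its frequency in the unselected input library; frequency after pTyr selection over input frequency; kinase dosed for 20-30% of maximal phosphorylation in three min.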

Sequence of EPHB1 (P54762 whole entry, looked up): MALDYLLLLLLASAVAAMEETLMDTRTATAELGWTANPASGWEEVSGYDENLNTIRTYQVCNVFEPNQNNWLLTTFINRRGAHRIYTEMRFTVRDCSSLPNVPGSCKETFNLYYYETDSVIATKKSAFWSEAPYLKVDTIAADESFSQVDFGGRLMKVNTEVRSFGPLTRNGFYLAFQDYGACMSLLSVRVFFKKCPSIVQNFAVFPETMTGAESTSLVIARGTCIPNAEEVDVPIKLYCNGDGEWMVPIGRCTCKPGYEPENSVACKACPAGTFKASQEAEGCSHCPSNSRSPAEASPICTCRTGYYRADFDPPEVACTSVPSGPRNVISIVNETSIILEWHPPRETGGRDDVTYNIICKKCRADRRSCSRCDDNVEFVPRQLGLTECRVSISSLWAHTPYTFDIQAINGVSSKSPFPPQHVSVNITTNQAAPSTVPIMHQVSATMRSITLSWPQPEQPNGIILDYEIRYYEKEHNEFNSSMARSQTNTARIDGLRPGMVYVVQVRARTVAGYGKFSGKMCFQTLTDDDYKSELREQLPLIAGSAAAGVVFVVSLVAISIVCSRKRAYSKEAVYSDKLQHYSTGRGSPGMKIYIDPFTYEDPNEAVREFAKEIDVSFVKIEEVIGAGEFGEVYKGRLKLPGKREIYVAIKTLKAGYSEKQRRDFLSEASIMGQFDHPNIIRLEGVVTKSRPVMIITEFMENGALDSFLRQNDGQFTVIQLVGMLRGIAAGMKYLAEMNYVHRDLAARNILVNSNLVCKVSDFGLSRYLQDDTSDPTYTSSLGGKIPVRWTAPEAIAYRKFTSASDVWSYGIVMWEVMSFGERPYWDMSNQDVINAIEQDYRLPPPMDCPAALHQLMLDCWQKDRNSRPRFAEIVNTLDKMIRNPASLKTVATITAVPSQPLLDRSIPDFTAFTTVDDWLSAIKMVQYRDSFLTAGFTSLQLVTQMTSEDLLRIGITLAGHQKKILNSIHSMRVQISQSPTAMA
Sequence of Fyn (P06241 whole entry, looked up): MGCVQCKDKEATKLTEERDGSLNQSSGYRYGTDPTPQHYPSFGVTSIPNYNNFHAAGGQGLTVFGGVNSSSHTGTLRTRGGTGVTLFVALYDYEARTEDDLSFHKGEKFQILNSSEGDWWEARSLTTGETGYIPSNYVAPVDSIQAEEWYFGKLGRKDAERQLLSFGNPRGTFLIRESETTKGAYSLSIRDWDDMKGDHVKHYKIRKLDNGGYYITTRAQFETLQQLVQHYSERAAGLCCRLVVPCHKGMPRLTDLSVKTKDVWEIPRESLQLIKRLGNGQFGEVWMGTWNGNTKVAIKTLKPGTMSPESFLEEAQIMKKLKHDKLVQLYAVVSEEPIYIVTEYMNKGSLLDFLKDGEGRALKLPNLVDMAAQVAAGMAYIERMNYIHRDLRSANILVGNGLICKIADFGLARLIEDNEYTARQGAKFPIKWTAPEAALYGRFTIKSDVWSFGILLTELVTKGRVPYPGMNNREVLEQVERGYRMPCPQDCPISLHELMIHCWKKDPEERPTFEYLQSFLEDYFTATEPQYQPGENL
Sequence of EPHB2 (P29323 whole entry, looked up): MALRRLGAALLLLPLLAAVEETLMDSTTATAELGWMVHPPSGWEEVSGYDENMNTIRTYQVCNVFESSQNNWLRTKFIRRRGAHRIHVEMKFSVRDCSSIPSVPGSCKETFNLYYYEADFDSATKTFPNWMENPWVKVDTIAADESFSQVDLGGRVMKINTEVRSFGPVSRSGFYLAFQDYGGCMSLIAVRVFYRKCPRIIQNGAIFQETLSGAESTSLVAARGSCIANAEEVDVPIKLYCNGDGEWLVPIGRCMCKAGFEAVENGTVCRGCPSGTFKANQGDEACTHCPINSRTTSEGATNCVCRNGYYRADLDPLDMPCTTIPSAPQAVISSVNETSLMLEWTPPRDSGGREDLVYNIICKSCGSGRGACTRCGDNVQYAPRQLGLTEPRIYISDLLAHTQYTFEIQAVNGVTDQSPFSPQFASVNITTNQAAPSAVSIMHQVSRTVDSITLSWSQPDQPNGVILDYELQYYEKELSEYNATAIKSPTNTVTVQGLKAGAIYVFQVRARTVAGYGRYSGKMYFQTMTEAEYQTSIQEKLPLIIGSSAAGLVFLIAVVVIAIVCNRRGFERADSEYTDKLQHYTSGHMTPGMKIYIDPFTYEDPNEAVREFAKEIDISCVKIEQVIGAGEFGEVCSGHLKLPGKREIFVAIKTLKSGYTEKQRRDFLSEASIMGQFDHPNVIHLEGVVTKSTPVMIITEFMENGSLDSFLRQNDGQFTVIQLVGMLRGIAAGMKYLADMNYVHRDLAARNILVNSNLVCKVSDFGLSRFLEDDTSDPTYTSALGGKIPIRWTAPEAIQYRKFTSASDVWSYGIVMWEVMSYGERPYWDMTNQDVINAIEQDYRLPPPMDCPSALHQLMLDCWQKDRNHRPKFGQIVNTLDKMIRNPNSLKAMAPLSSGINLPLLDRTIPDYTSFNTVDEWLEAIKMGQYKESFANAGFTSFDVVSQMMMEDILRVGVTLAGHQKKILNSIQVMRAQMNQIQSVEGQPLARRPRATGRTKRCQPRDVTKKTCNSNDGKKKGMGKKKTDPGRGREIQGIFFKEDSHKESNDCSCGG

On to CTTIHYNFICN [TP53_Y234_M237I_YF], for which the phosphorylation enrichment with EPHB1 stood at 0.554; with Fes, 1.23; in the series on AncSZ it was 0.895; with Fyn, 0.464; in the series with MERTK, 0.439; in the series on c-Src, 0.595. Further, the phosphorylation enrichment in the series with Fer (mouse) was 0.672; with FGFR3 it was 0.775; in the series with Jak2, 1.25; in the series with FGFR1 it was 0.554; in the series with c-Abl (mouse) it was 0.787; in the series with EPHB2, 0.59. Besides, the phosphorylation enrichment with Hck is 0.454. Also, the SH2 binding enrichment with c-Src SH2 is 2.34; with Grb2 SH2, 2; with SHP2-C SH2, 2.05.
Take RLLVVYPWNQR [HBB_Y36_T39N]: the phosphorylation enrichment is 0.391 with EPHB1; 1.4 with Fes; 1.1 in the series with AncSZ; 0.603 in the series with Fyn; 0.636 with MERTK; 0.351 in the series with c-Src. For the same sequence, the phosphorylation enrichment in the series with Fer (mouse) worked out at 0.595; in the series with FGFR3 it was 0.62; with Jak2, 1.04; with FGFR1, 0.557; with c-Abl (mouse), 0.735; with EPHB2, 0.752. Also, in the series with Hck, the phosphorylation enrichment was determined as 0.431. The SH2 binding enrichment with c-Src SH2 was 1.54; with Grb2 SH2, 2.12; with SHP2-C SH2, 1.84.
Turning to SVTCTSSPALN [TP53_Y126_Y126S], the phosphorylation enrichment in the series with EPHB1 was 0.626; in the series with Fes, 1.34; in the series with AncSZ it was 1.3; in the series with Fyn, 0.562; with MERTK, 0.436; in the series with c-Src, 0.47. The phosphorylation enrichment in the series on Fer (mouse) stood at 0.538; with FGFR3, 0.863; with Jak2, 1.18; in the series with FGFR1, 0.476; with c-Abl (mouse) it was 0.856; in the series with EPHB2, 0.675. The phosphorylation enrichment with Hck was 0.526. For the same sequence, the SH2 binding enrichment in the series with c-Src SH2 worked out at 0.482; with Grb2 SH2, 0.767; in the series with SHP2-C SH2 it was 0.603.
Consider WASGIYFVPKG [APBB1IP_Y340_R335W_YF], for which the phosphorylation enrichment came to 10.1 with EPHB1; 0.993 with Fes; 2.81 in the series with AncSZ; 7.44 with Fyn; 9 with MERTK; 5.32 in the series on c-Src. Moreover, the phosphorylation enrichment in the series with Fer (mouse) is 2.87; in the series with FGFR3, 4.26; with Jak2 it was 7.69; in the series with FGFR1, 4.77; in the series with c-Abl (mouse), 28.7; with EPHB2, 10. The phosphorylation enrichment with Hck was 7.16. For the same sequence, the values for the SH2 binding enrichment in the series with c-Src SH2, with Grb2 SH2 and in the series with SHP2-C SH2 were 0.848, 1.29 and 1.17, respectively.
For VVIMLYGVDSR [PKD1_Y3143_G3139V], the phosphorylation enrichment in the series with EPHB1 amounted to 0.879; with Fes it was 1.57; with AncSZ it was 1.29; in the series with Fyn, 0.592; in the series with MERTK, 0.399; in the series with c-Src, 0.524. For the same sequence, the phosphorylation enrichment in the series on Fer (mouse) came to 0.682; with FGFR3 it was 0.924; with Jak2, 1.35; with FGFR1 it was 0.545; in the series with c-Abl (mouse), 1.04; in the series with EPHB2, 0.72. For the same sequence, the phosphorylation enrichment with Hck is 0.594. Besides, the results for the SH2 binding enrichment with c-Src SH2, with Grb2 SH2 and with SHP2-C SH2 were 0.645, 0.981 and 0.826, respectively.
For the sequence RLASVYTKRCS [CPT2_Y508_P504L], the phosphorylation enrichment with EPHB1 came to 0.706; in the series with Fes, 0.889; with AncSZ, 0.917; with Fyn, 0.528; with MERTK it was 0.316; in the series with c-Src, 0.557. Moreover, the phosphorylation enrichment in the series with Fer (mouse) worked out at 0.414; with FGFR3, 0.695; in the series with Jak2 it was 0.739; with FGFR1, 0.4; in the series on c-Abl (mouse), 0.643; with EPHB2 it was 0.501. In addition, the phosphorylation enrichment with Hck was 0.578. Further, the figures for the SH2 binding enrichment with c-Src SH2, in the series with Grb2 SH2 and with SHP2-C SH2 were 0.611, 0.868 and 0.864, respectively.
HPHECYAKVFD [ALB_Y394_D389H]: the phosphorylation enrichment is 0.641 with EPHB1; 1.36 with Fes; 1.16 with AncSZ; 0.622 in the series with Fyn; 0.764 with MERTK; 0.659 in the series on c-Src. Also, the phosphorylation enrichment in the series on Fer (mouse) stood at 0.624; with FGFR3, 0.845; with Jak2 it was 1.3; with FGFR1 it was 0.636; with c-Abl (mouse), 1.01; with EPHB2, 0.441. The phosphorylation enrichment with Hck came out at 0.654. Moreover, the SH2 binding enrichment in the series with c-Src SH2 amounted to 3.07; in the series with Grb2 SH2 it was 0.944; in the series with SHP2-C SH2, 2.67.
With GNLLIYTEFGN [HGD_Y166_K171N], the phosphorylation enrichment with EPHB1 was found to be 2.71; in the series with Fes, 1.15; in the series with AncSZ it was 1.31; in the series with Fyn, 5.81; with MERTK, 3.75; in the series with c-Src, 4.74. The phosphorylation enrichment with Fer (mouse) was 0.775; with FGFR3, 0.903; in the series with Jak2 it was 0.997; with FGFR1 it was 0.726; in the series on c-Abl (mouse), 2.23; with EPHB2, 1.89. Moreover, in the series with Hck, the phosphorylation enrichment was 3.51. The SH2 binding enrichment was 0.462 with c-Src SH2, 0.736 with Grb2 SH2 and 0.541 in the series with SHP2-C SH2.
